Experimental findings from the nanobody polyreactivity screen of Harvey et al. (2022) are described below.

This series in a line: yeast display, Sf9 membrane polyspecificity reagent, FACS + sequencing; frameworks hold sequencing errors. A digest of the protocol:
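Nanobodies from a synthetic yeast display library (Saccharomyces cerevisiae BJ5465), induced 36–48 hours with galactose, were stained 1 hour at 4 °C with 10% biotinylated, detergent-solubilized Sf9 membrane reagent, enriched on streptavidin microbeads, then FACS-sorted. Anti-HA (expression) and streptavidin (reagent binding) fluorescence set low and high (top ~1%) gates. Polyreactivity labels come from the gate of origin. Genes were colony-PCR amplified, MiSeq 2 × 250 sequenced and filtered by CDR length.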
As for “QVQLVESGGGLVQAGGSRRLSCAASGFIFTKYTMGWYRQAPGKERELVAAIRSDGVRTYYADSVKGRFTISRDNAKNTVYLQMNSLKPEDTAVYYCAARSLRYGRGMYYWGQGTQVTVSS”, the “polyreactivity (PSR sort gate)” value is “high polyreactivity”.

Consider “QVQLVESGGGLVQAGGSRRLSCAASGIIFAQYAMGWYRQAPGKERELVDSISGGGSTTNYADSVKGRFTISRDNAKNTVYLQMNSLKPEDTAVYYCAARTRRRGGIYDYWGQGTQVTVSS”, for which the “polyreactivity (PSR sort gate)” value was “high polyreactivity”.

In the case of “QVQLVESGGGLVQAGGSRRLSCAASGIIFTRNSMGWYRQAPGKERELVAAISRSGGRTYYADSVKGRFTISRDNAKNTVYLQMNSLKPEDTAVYYCYPRDKNLQAYDYWGQGNQVTVSS”, the “polyreactivity (PSR sort gate)” value is on record as “high polyreactivity”.

As for “QVQLVESGGGLVQAGGSRRLSCAASGIIFYPNAMGWYRQAPGKERELVAAITSDGSTYYADSVKGRFTISRDNAKNTVYLQMNSLKPEDTAVYYCAAWDDYGYDYWGQGTQVTVSS”, the “polyreactivity (PSR sort gate)” value is on record as “low polyreactivity”.

For “QVQLVESGGGLVQAGGSRRLSCAASGRSFTRYAMGWYRQAPGKERVLVAAITSSGRTYYADSVKGRFTISRDNAKNTVYLQMNRLKPEDTAVYYCAKYRANALNYANRGAGDYWGQGTQVTVSS”, the “polyreactivity (PSR sort gate)” value was “high polyreactivity”.

On to “QVQLVESGGGLVQAGGSRRLSCAASGRTFRNYAMGWYRQAPGKERELVAAINFSGDGTYYADSVKGRFTISRDNAKNTVYLQMNSLKPEDTAVYYCAADVEYYRDVPQQVYVSDDYWGQGTQVTVSS”, for which the “polyreactivity (PSR sort gate)” value is given as “low polyreactivity”.

“QVQLVESGGGLVQAGGSRRLSCAASGSIFDYYVMGWYRQAPVKERELVAAISWSGASTYSADSVKGRFTISRDNAKNTVYLQMNSLKPEDTAVYYCAADYGVNTLIDYDYWGQGTQVTVSS”: the “polyreactivity (PSR sort gate)” value was “low polyreactivity”.

For “QVQLVESGGGLVQAGGSRRLSCAASGSIFVKYAMGWYRQAPGKERELVAAISQSGVRTYYADSVKGRFTISRDNAKNTVYLQMNSLKPEDTAVYYSAAYSGYYYWGQGTQVTVSS”, the “polyreactivity (PSR sort gate)” value is listed as “high polyreactivity”.

On to “QVQLVESGGGLVQAGGSRRLSCAASGSISGYNAMGWYRQAPGKERELVAVITTDGSTNYADSVKGRFTISRDNAKNTVYLQMNSLKPEDTAVYYCADYVVWLYGYEYWGQGTQVTVSS”, for which the “polyreactivity (PSR sort gate)” value is given as “low polyreactivity”.

“QVQLVESGGGLVQAGGSRRLSCAASGSISNRYAMGWYRPAPGKEREFVARIRRRGGSTNYADSVKGRFTISRDNAKKTVYLQMNSLKPEDTAVYYCNAYPYQLDYDYWGQGTQVTVSS”: the “polyreactivity (PSR sort gate)” value is on record as “high polyreactivity”.

In the case of “QVQLVESGGGLVQAGGSRRLSCAASGSISVGFTMGWYRQAPGKEWEFVAVITGTGGRTRYADSVKGRFTISRDNAKNTVYLQMNSLKPEDTAVYYCAAKIRWRGALYDYWGQGSQVTVSS”, the “polyreactivity (PSR sort gate)” value is reported as “high polyreactivity”.

Turning to “QVQLVESGGGLVQAGGSRRLSCAASGSTFARYPMGWYRQAPGKERELVATITRGGSTNYADSVKGRFTISRDNAKNTVYLQMNSLKPEDTAVYYCNARCGRSPYGYGDYYWGQGTQVTVSS”, the “polyreactivity (PSR sort gate)” value is “high polyreactivity”.

Take “QVQLVESGGGLVQAGGSRSLSCAASGRNFYYYTMGWYRQAPGKERELVAAISWGGVNTDYADSVKGRFTISRDNAKNTVYLQMNSLKPEDTAVYYCAAGRWSVGTYDYWGQGTQVTVSS”: the “polyreactivity (PSR sort gate)” value is “low polyreactivity”.

In the case of “QVQLVESGGGLVQAGGSSRLSCAASGRTFDDYAMGWYRQAPATERELVAAISSRGGSTYYADSVKGRFTISRDNAKHTVYLQMNSLKPEDTAVYYSNTLQSSHGSSQYDSWGQGTQVTVSS”, the “polyreactivity (PSR sort gate)” value is “low polyreactivity”.

For “QVQLVESGGGLVQAGGSVRLSCAASGFISPSYAMGWYRQAPGKERELVAAITTSGGSTYYADSVKGRFTISRDNAKNTVYLQMNSLIPEDTAVYYCAAVGPDNSLYEPMDYWGQGTQVTVSS”, the “polyreactivity (PSR sort gate)” value is listed as “low polyreactivity”.

Turning to “QVQLVESGGGLVQAGGSVRLSCAASGFSFRLYVLGWYRQAPGTERELVAAISSLGGSTYYADSVKGRFTISRDNAKYTVDLQMNSLKPEDTAVYYCAADRPRGRETVDYWGHGTQVTVSS”, the “polyreactivity (PSR sort gate)” value is “high polyreactivity”.

On to “QVQLVESGGGLVQAGGSVRLSCAASGNIFLRNAMGWYRQSPGKERELVAAIRRTGGSTYYADSVKGRFTISRDNAKTTVYLQMNSLKPEDTAVYYCAKRSYTGYEYWGQGTQVTVSS”, for which the “polyreactivity (PSR sort gate)” value is given as “low polyreactivity”.

Take “QVQLVESGGGLVQAGGSVRLSCAASGRIFQPYAMGWYRQAPGKEREWVAAITRRAGSTYYADSVKGRFTISRDNALNTVYLQLNSLKPEDTAVSYCAARGLYWAYEMEYWGQGTQVTVSS”: the “polyreactivity (PSR sort gate)” value is reported as “low polyreactivity”.

For the sequence “QVQLVESGGGLVQAGGSVRLSCAASGRILKVYPMGWYRQAPGKEWEFVAAISVNGGRTYYADSVKGRFTISRDNAKNTVYLQRQRLNPEDTAVYYCAKRLYKPGNVFYSVDQSDYWGQGTQVTVSS”, the “polyreactivity (PSR sort gate)” value is “low polyreactivity”.

In the case of “QVQLVESGGGLVQAGGTHRLSCSASGFIFCKYAMGWYRQAPGKERELVAVITRSGSRTYYADSVKGRFTISRDNAKNTVYLQMNSLKPEDTAVYYCATENVYAYDYWGQGTQVTVSS”, the “polyreactivity (PSR sort gate)” value is listed as “high polyreactivity”.

In the case of “QVQLVESGGGLVQAGGTISLSCAASGRTYRNNAMGWYRQAPGKEMELVAAISRTGGRTYYADSVKGRFTISRDNAKNPVYLQMNSLKPEDSAVYYCNAAYLVREYDYWGQGTQVTVSS”, the “polyreactivity (PSR sort gate)” value is on record as “high polyreactivity”.

In the case of “QVQLVESGGGLVQAGGTLRLICAASGSTFGPYDMGWYRQAPGKERELVADITSGGSTYYADSVKGRFTISRDNAKNTVYLQMISLKPEDTAVYYCAADRVWPYYQYDYWGQGTQVTVSS”, the “polyreactivity (PSR sort gate)” value is listed as “low polyreactivity”.

For “QVQLVESGGGLVQAGGTLRLSCAASGFIFAGYAMAWYRHAPGKERELVAASSWDGGSTYFADSVKGRFTISRDNAKHTVYLQMNSLIPEDTAGYYCAAKYFRHGPATYDYWGQGTQVTVSS”, the “polyreactivity (PSR sort gate)” value is “low polyreactivity”.

In the case of “QVQLVESGGGLVQAGGTLRLSCAASGFIFRKYGMGWYRQAPGKERELVAAIRFTGGSTRYADSVKGRFTISRDNAKNTVYLQMNSLKPEDTAVYYCNADRVYVRGRFTYDYWGQGTQVTVSS”, the “polyreactivity (PSR sort gate)” value is “low polyreactivity”.

“QVQLVESGGGLVQAGGTLRLSCAASGIIFDQNAMGWYRQAPGKERELVAAISWSGGGTYYADSVKGRFTISRDNAKNTVYLQMNSLKPEDTAVSYCAVEDMSHAYVQHYRFGYGYWGQGTQVTVSS”: the “polyreactivity (PSR sort gate)” value is listed as “low polyreactivity”.

Turning to “QVQLVESGGGLVQAGGTLRLSCAASGIIFDTYVMGWYRQAPGKERELVAAITRSGGRTRYADTVKGRFTISRYNAKNTVYLQMNSLKPEDTAVYYCAARIPDRQDGYGYWGQGTQVTVSS”, the “polyreactivity (PSR sort gate)” value is given as “high polyreactivity”.

Consider “QVQLVESGGGLVQAGGTLRLSCAASGLTFRYYAMGWYRQAPGKERELVAAITRRGSTYYADSVKGRFTISRDNAKNTVYFQMNSLKPEDTAVYYCATVTGFHSSPLRDLDYWGQGTQVTVSS”, for which the “polyreactivity (PSR sort gate)” value is given as “high polyreactivity”.

With “QVQLVESGGGLVQAGGTLRLSCAASGRIFQAYAMGWYRQAPGKERELVASISYRGGITYYADSVKGRFTISRDNAKNTVYLQMNSLKPEDTAVYYCAARSWYFSWEMYYWGQGTQVTVSS”, the “polyreactivity (PSR sort gate)” value is “high polyreactivity”.

Consider “QVQLVESGGGLVQAGGTLRLSCAASGRIFSKNAMGWYRQAPGKERELVARIRWTGGITYYADSVKGRFTISRDNAKNTVYLQMNSLKPEDTAVYYCAAGSYAGFAVIGYYYWGQGTQVTVSS”, for which the “polyreactivity (PSR sort gate)” value is “low polyreactivity”.

On to “QVQLVESGGGLVQAGGTLRLSCAASGRTFGYNAMGWYRPAPGKERELVAVIRSGGSTYYADSVKGRFTISRDNAKNTVYLQMNSLKPEDTAVYYCAATGLYNVTSPYSYKYDYWGQGTQVTVSS”, for which the “polyreactivity (PSR sort gate)” value is given as “low polyreactivity”.

Regarding “QVQLVESGGGLVQAGGTLRLSCAASGRTFNAYPMGWYRQAPGKERELVAAITSSGTSTYYADSVKGRFTISRDNAKNTVYLQMNSLKPEDTAVYYCAAPWGYWGQCTQVTVSS”, the “polyreactivity (PSR sort gate)” value is “low polyreactivity”.

Turning to “QVQLVESGGGLVQAGGTLRLSCAASGRTFTIYAMGWYRQAPGKEREWVAAITSGGSSYYADSVKGRFTISRDNATKTDYLQMNSLKPEDTAVEYCARGYAVSLVSRYYYWGQGTQVTVSS”, the “polyreactivity (PSR sort gate)” value is listed as “low polyreactivity”.

On to “QVQLVESGGGLVQAGGTLRLSCAASGRTFYGNAMGWYRQAPGKERELVAVITRRGDTTYYADSVKGRFTISRDNAKNTVYLQMNSLKPEDTAVYYCAASYTGGYTPRQKYNRMGYWGQGTQVSVSS”, for which the “polyreactivity (PSR sort gate)” value is “high polyreactivity”.

As for “QVQLVESGGGLVQAGGTLRLSCAASGSIFRLNAMGWYRQPPGKERELVAAITSGGRTNYADSVKGRFTISRDNAKNTDYLQMNSLKPEDTAVYYCNARATAYGWRGDAGFEFDYWGQGTQVTVSS”, the “polyreactivity (PSR sort gate)” value is recorded as “low polyreactivity”.

As to “QVQLVESGGGLVQAGGTLRLSCAASGSIFRYYAMGWYRQAPGKERELVATITSTGGSTYYADSVKGRFTISRDNAKNTVYLQMNSLKPEDTAVYYCAARNKWYVTVRGYYLSGFWGQGTQVTVSS”, the “polyreactivity (PSR sort gate)” value was “high polyreactivity”.

As to “QVQLVESGGGLVQAGGTLRLSCAASGSIFYPNAMGWYRQAPGKERELVAASSWTGGSTRYADSVKGRFTISRDIAKNTVYLQMNSLKPEDTAVYYCAALYVYRPRTPYGYSGQGTQVTVSS”, the “polyreactivity (PSR sort gate)” value was “high polyreactivity”.

Consider “QVQLVESGGGLVQAGGTLRLSCAASGSIQYRYAMGWYRQAHGKERELVAAISARGGNTYYADSVKGRFTISRDNAKNTVYVQMNSLKPEDTAVYYCAATYRGYRLHVAYDYWGQGTQVTVSS”, for which the “polyreactivity (PSR sort gate)” value is listed as “high polyreactivity”.

“QVQLVESGGGLVQAGGTLRLSCAASGSTFDVYAMGWYRQSPVKESELVADINYGDASTYYADSVKGRFTISRDNAKNTVYLQMISLNPEDTSVYYCAAFVYVLNYLSDGGSVYREHDYWGQGTKVTVSS”: the “polyreactivity (PSR sort gate)” value is recorded as “low polyreactivity”.

In the case of “QVQLVESGGGLVQAGGTLRLSCAASGSTFGRYAMGWYRQAPGKERELVAAITSDTGNTNYADSVKGRFTISRDNAKNTVYLQMNSLKPEDTAVYYCAARLYARRVYDYWGQGTQVTVSS”, the “polyreactivity (PSR sort gate)” value was “low polyreactivity”.

“QVQLVESGGGLVQAGGTLRLSCAASGSTFKSNAMGWYRQEPGKERELVAAINRSGAGTYYADSVKGRFTISRDNAKNTVYLQMNSLKPEDTAVYYCAAQSYSRRYDYWGQGTQVTVSS”: the “polyreactivity (PSR sort gate)” value was “high polyreactivity”.

As for “QVQLVESGGGLVQAGGTLRLSCAASGSTFPRNTMGWYRHEPGKERELVAAISSSGVRTYYADSVKGRFTISRDNAKNTVYLQMNSLKAEDTAVYYCAAGSQSRDYYYWGQGTLVTVSS”, the “polyreactivity (PSR sort gate)” value is reported as “high polyreactivity”.
